Reference: patent US9957308B2, “Method for detecting bilirubin using a fluorescent protein” (RIKEN, priority 2013, dated 2018)

Legend:
apo UnaG protein = molecular target: T1, apo UnaG protein (Anguilla japonica, UniProt P0DM59); assay: Reconstruction of apo UnaG protein using bilirubin or bilirubin analog, fluorescence intensity; assay type: binding, Japanese eel (Anguilla japonica); settings: 0.5 μM apo UnaG, ligand 0.125-2.0 μM, 30 min room temperature, excitation 497 nm / emission 527 nm
T1 construct: GST (N, cleaved yes); made in house; host or cells: Escherichia coli BL21 (DE3)
Procedure: Bilirubin or a bilirubin analog, biliverdin (Toronto Research Chemicals), urobilin (MP Biomedicals), or ditaurobilirubin (Frontier Scientific), was diluted with PBS such that the final concentration was 0.125 μM, 0.25 μM, 0.5 μM, 1.0 μM, or 2.0 μM and was mixed with 0.5 μM apo UnaG protein. The mixture was left to stand at room temperature for 30 min. Subsequently, 200 μL of the mixture was added to each well of a 96 well microplate (Greiner Bio-One) and was subjected to measurement of the fluorescence intensity at a wavelength of 527 nm with excitation light having a wavelength of 497 nm using EnSpire multi-mode plate reader (PerkinElmer Co., Ltd.).

[1] = Measurement of fluorescence spectrum, absorption spectrum, quantum yield and fluorescence lifetime; assay type: physicochemical
Procedure: In order to analyze the fluorescent properties of UnaG protein, the fluorescence spectrum, absorption spectrum, and quantum yield were measured. The excitation spectrum and the fluorescence spectrum were measured with a spectrophotofluorometer, RF-5300PC (Shimadzu Corporation), at an excitation wavelength of 475 nm and a fluorescence wavelength of 550 nm. The absorption spectrum was measured with a spectrophotometer, U-2900 (Hitachi High-Technologies Corporation). The quantum yield was measured with an absolute quantum yield measurement system, Quantaurus-QY (Hamamatsu Photonics K.K.) at excitation wavelengths of 470 nm and 480 nm. A known fluorescent protein, EGFP, was similarly measured, and the values were compared to those of UnaG protein.
In order to analyze the fluorescent properties of R82EK84E mutant, the fluorescence spectrum, absorption spectrum, and quantum yield were measured. The measurement was performed by the same method as that described in the above-described paragraph 3. The fluorescence lifetime was measured with a small-sized fluorescence lifetime measurement system, Quantaurus-Tau (Hamamatsu Photonics K.K.) and was compared to that of wild-type UnaG protein.
The fluorescence spectrum, absorption spectrum, and quantum yield (excitation wavelength: 470 nm) were measured for analyzing the fluorescent properties of holo A12ES80N mutant protein. The measurement was performed by the same method as that described in paragraph 3, above. The fluorescent properties were compared to those of wild-type UnaG protein.

[2] = Evaluation of aggregability of protein by dynamic light scattering particle diameter; assay type: physicochemical; settings: wild-type 10 mg/mL, R82EK84E mutant 8.5 mg/mL
Procedure: Protein solutions (each 20 μL) of wild-type UnaG protein (10 mg/mL) and R82EK84E mutated UnaG protein (8.5 mg/mL) were each supplied to Microtrac particle size analyzer MT3000II (Nikkiso Co., Ltd.), and the particle diameters were measured by a dynamic light scattering. The aggregability was evaluated by plotting frequency against particle diameter.

[3] = Table 3, wild-type vs R82EK84E mutant
[4] = Table 3, wild-type vs R82EK84E mutant, holo form reconstructed with bilirubin
[5] = Table 4, wild-type vs holo A12ES80N mutant

B1: UnaG: fluorescent polypeptide including the amino acid sequence of SEQ ID NO: 1, originally isolated from Japanese eel; fluoresces in the presence of bilirubin (protein, listed as Anguilla japonica)
chain: MVEKFVGTWKIADSHNFGEYLKAIGAPKELSDGGDATTPTLYISQKDGDKMTVKIENGPPTFLDTQVKFKLGEEFDEFPSDRRKGVKSVVNLVGEKLVYVQKWDGKETTYVREIKDGKLVVTLTMGDVVAVRSYRRATE
For B1, the “fluorescence of UnaG on addition of ligand (specificity)” value (apo UnaG protein) was “specific to bilirubin”, the Maximum excitation wavelength ([1]; Table 2, UnaG compared to EGFP) was 498 nm and the Maximum fluorescence wavelength ([1]; Table 2, UnaG compared to EGFP) was 527 nm. The Brightness ([1]; Table 2, [(Molar extinction coefficient) × (Quantum yield)]/1,000) was 39.4, the Molar extinction coefficient ([1]; Table 2, at the maximum excitation wavelength (498 nm UnaG, 490 nm EGFP)) was 77,300 (498 nm) M^−1 cm^−1 and the Quantum yield ([1]; Table 2, excitation wavelengths 470 nm and 480 nm) was 51%. The Molar extinction coefficient [1, 3] was 56,992 M^−1 cm^−1, the Quantum yield [1, 3] was 51% and the Maximum excitation wavelength [1, 4] was 498 nm. For the same molecule, the Maximum fluorescence wavelength [1, 4] was 527 nm, the “Fluorescence lifetime (τ1/ns)” value ([1]; Table 3, wild-type vs R82EK84E mutant, Quantaurus-Tau) was 2.2 ns and the Maximum excitation wavelength [1, 5] was 499 nm. The Maximum fluorescence wavelength [1, 5] was 527 nm, the Molar extinction coefficient [1, 5] was 52,687 M^−1 cm^−1 and the Quantum yield ([1]; Table 4, excitation wavelength 470 nm) was 53.2%. For the same molecule, the Fluorescence lifetime ([1]; main fluorescent properties of UnaG) was 2.2 nanosecond and the “particle diameter distribution (peaks)” value [2] was “two peaks of different particle diameter distribution ranges”.
